# According to patent publication US20240279281A1, “Peptide Inhibitors of Interleukin-23 Receptor” (Janssen Pharmaceutica NV, priority 2023, published 2024):
# Positions of bridges follow the written chain, without caps; N, C: chain ends. Non-standard residues stand in square brackets, D forms with d. No end group written: not given here. Trp(7-Me) = Cc1cccc2c(C[C@H](N)C(=O)O)c[nH]c12; 3Pal = N[C@@H](Cc1cccnc1)C(=O)O; Lipidated = not defined here; NMeK = CN[C@@H](CCCCN)C(=O)O; Pen = CC(C)(S)[C@H](N)C(=O)O; lipid = not defined here; Thp = NC1(C(=O)O)CCOCC1; Sar = CNCC(=O)O
# T1: interleukin-23 receptor (IL-23R), Q5VWK5
# T1 chain: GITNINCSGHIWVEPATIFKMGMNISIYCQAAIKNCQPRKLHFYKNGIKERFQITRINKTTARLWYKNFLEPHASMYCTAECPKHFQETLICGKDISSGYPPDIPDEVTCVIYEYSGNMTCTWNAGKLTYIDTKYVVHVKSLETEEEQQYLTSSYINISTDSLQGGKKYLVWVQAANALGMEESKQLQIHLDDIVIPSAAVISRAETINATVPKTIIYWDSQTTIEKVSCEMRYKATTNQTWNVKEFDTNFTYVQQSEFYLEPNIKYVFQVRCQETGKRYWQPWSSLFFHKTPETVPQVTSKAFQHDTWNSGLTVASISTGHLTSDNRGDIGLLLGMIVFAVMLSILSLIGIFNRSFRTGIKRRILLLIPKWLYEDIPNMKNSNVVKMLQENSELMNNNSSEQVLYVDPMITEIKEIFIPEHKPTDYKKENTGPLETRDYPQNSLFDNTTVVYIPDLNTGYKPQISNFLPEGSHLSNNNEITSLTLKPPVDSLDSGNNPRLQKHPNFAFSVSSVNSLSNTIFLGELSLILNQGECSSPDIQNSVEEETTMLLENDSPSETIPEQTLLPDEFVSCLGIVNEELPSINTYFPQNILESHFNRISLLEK
# B1: SEQ ID NO: 192 (peptide)
# peptide: [Pen]ET[Trp(7-Me)]K(Lipidated)[Pen][2‑amino‑3‑(4-(2-aminoethoxy)phenyl)propanoic acid][2‑amino‑3‑(6-hydroxynaphthalen-2-yl)propanoic acid][Thp]K(Ac)N[3Pal][Sar]
# modifications: disulfide 1-6 (inferred); ends not checked; also: K5: lipidated lysine, lipid not given here
# B2: SEQ ID NO: 186 (peptide)
# peptide: [Pen]NT[Trp(7-Me)]K(Ac)[Pen][2‑amino‑3‑(4-(2-aminoethoxy)phenyl)propanoic acid][2‑amino‑3‑(6-hydroxynaphthalen-2-yl)propanoic acid][Thp]K(Lipidated)N[3Pal][Sar]
# modifications: disulfide 1-6 (inferred); ends not checked; also: K10 lipidated lysine, lipid not given here
# B3: SEQ ID NO: 191 (peptide)
# peptide: R[Pen]NT[Trp(7-Me)]K(Ac)[Pen][2‑amino‑3‑(4-(2-aminoethoxy)phenyl)propanoic acid][2‑amino‑3‑(6-hydroxynaphthalen-2-yl)propanoic acid][Thp]EN[3Pal][Sar]K(Lipidated)
# modifications: disulfide 2-7 (inferred); ends not checked; also: K15: lipidated lysine, lipid not given here
# B4: SEQ ID NO: 198 (peptide)
# peptide: [Pen]NT[Trp(7-Me)]K(Ac)[Pen][5‑(4-(2-amino-2-carboxyethyl)phenoxy)‑N,N,N‑trimethylpentan‑1‑aminium][2‑amino‑3‑(6-hydroxynaphthalen-2-yl)propanoic acid][Thp]K(Lipidated)N[3Pal][Sar]
# modifications: disulfide 1-6 (inferred); ends not checked; also: K10: lipidated lysine, lipid not given here
# B5: SEQ ID NO: 204 (peptide)
# peptide: [(R)‑3‑carboxy‑2‑(4-(((R)-5-carboxy-5-hydrazineylpentyl)amino)-4-oxobutanamido)‑N,N,N‑trimethylpropan‑1‑aminium][Pen]NT[Trp(7-Me)]K(Ac)[Pen][2‑amino‑3‑(4-(2-aminoethoxy)phenyl)propanoic acid][2‑amino‑3‑(6-hydroxynaphthalen-2-yl)propanoic acid][Thp]EN[3Pal][NMeK]
# modifications: disulfide 2-7 (inferred); not fully specified (residue 14); ends not checked; also: X14: lipidated N-methyl-lysine, lipid not given here
# B6: SEQ ID NO: 210 (peptide)
# peptide: [(R)‑3‑carboxy‑2‑(4-(((R)-5-carboxy-5-hydrazineylpentyl)amino)-4-oxobutanamido)‑N,N,N‑trimethylpropan‑1‑aminium][Pen]NT[Trp(7-Me)]K(Ac)[Pen][2‑amino‑3‑(4-(2-aminoethoxy)phenyl)propanoic acid][2‑amino‑3‑(6-hydroxynaphthalen-2-yl)propanoic acid][Thp]EN[3Pal][NMeK]
# modifications: disulfide 2-7 (inferred); not fully specified (residue 14); ends not checked; also: X14: lipidated N-methyl-lysine, lipid not given here
# B7: SEQ ID NO: 190 (peptide)
# peptide: R[Pen]NT[Trp(7-Me)]K(Ac)[Pen][2‑amino‑3‑(4-(2-aminoethoxy)phenyl)propanoic acid][2‑amino‑3‑(6-hydroxynaphthalen-2-yl)propanoic acid][Thp]EN[3Pal][NMeK]
# modifications: disulfide 2-7 (inferred); not fully specified (residue 14); ends not checked; also: X14 lipidated N-methyl-lysine, lipid not given here
# B8: SEQ ID NO: 214 (peptide)
# peptide: [Pen]ET[Trp(7-Me)]K(lipid)[Pen][2‑amino‑3‑(4-(2-aminoethoxy)phenyl)propanoic acid][2‑amino‑3‑(6-hydroxynaphthalen-2-yl)propanoic acid][Thp]K(Ac)N[3Pal][Sar]
# modifications: disulfide 1-6 (inferred); ends not checked; also: K5: lipidated lysine, lipid not given here
# B9: SEQ ID NO: 215 (peptide)
# peptide: [Pen]ET[Trp(7-Me)]K(Ac)[Pen][2‑amino‑3‑(4-(2-aminoethoxy)phenyl)propanoic acid][2‑amino‑3‑(6-hydroxynaphthalen-2-yl)propanoic acid][Thp]K(lipid)N[3Pal][Sar]
# modifications: disulfide 1-6 (inferred); ends not checked; also: K10: lipidated lysine, lipid not given here
# B10: SEQ ID NO: 193 (peptide)
# peptide: [Pen]ET[Trp(7-Me)]K(Ac)[Pen][2‑amino‑3‑(4-(2-aminoethoxy)phenyl)propanoic acid][2‑amino‑3‑(6-hydroxynaphthalen-2-yl)propanoic acid][Thp]K(Lipidated)N[3Pal][Sar]
# modifications: disulfide 1-6 (inferred); ends not checked; also: K10: lipidated lysine, lipid not given here
# B11: SEQ ID NO: 218 (peptide)
# peptide: R[Pen]NT[Trp(7-Me)]K(Ac)[Pen][2‑amino‑3‑(4-(2-aminoethoxy)phenyl)propanoic acid][2‑amino‑3‑(6-hydroxynaphthalen-2-yl)propanoic acid][Thp]EN[3Pal][Sar]K(lipid)
# modifications: disulfide 2-7 (inferred); ends not checked; also: Lys15 lipidated, lipid not given here
# B12: SEQ ID NO: 216 (peptide)
# peptide: K(lipid)[Pen]NT[Trp(7-Me)]K(Ac)[Pen][2‑amino‑3‑(4-(2-aminoethoxy)phenyl)propanoic acid][2‑amino‑3‑(6-hydroxynaphthalen-2-yl)propanoic acid][Thp]K(Ac)N[3Pal][Sar]
# modifications: disulfide 2-7 (inferred); ends not checked; also: Lys1 lipidated, lipid not given here
# Biological target: T1, interleukin-23 receptor (IL-23R), Q5VWK5
# Assay: cell-based or functional assay
row,PBMC pSTAT3 IC50,Binder
1,< 1 nM,R[Pen]NT[Trp(7-Me)]K(Ac)[Pen][2‑amino‑3‑(4-(2-aminoethoxy)phenyl)propanoic acid][2‑amino‑3‑(6-hydroxynaphthalen-2-yl)propanoic acid][Thp]K(Ac)N[3Pal][Sar] (disulfide 2-7 (inferred); ends not checked) [SEQ ID NO: 220]
2,< 1 nM,B1
3,< 1 nM,B2
4,< 1 nM,B3
5,< 1 nM,B4
6,< 1 nM,B5
7,< 1 nM,B6
8,< 1 nM,B7
9,< 1 nM,B8
10,< 0.1 nM,B9
11,< 0.1 nM,R[Pen]NT[Trp(7-Me)]K(Ac)[Pen][2‑amino‑3‑(4-(2-aminoethoxy)phenyl)propanoic acid][2‑amino‑3‑(6-hydroxynaphthalen-2-yl)propanoic acid][Thp]EN[3Pal][Sar] (disulfide 2-7 (inferred); ends not checked) [SEQ ID NO: 217]
12,< 1 nM,B10
13,> 1 nM,B11
14,< 0.1 nM,B12
